Biological target: T1, human fibrinogen (human, UniProt P02671-2 20-644; P02675 31-491; P02679-2 27-437)
T1 sequence (looked up) 1: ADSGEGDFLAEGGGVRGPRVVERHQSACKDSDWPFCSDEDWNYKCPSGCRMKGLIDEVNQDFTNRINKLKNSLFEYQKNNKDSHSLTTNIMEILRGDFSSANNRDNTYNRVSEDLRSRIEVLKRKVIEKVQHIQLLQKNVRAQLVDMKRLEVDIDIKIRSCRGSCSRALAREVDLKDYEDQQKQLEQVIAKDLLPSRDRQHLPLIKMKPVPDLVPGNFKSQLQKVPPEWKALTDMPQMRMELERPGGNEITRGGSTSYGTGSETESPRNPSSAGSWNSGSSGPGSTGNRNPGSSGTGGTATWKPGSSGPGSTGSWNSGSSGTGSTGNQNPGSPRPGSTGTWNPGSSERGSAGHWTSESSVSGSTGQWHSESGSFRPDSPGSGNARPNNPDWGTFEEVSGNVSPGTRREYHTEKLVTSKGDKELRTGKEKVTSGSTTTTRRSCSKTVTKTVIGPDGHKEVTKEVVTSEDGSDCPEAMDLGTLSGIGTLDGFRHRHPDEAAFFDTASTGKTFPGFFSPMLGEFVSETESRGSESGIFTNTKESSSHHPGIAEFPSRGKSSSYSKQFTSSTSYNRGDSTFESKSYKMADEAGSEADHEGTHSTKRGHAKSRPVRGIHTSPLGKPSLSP
T1 sequence (looked up) 2: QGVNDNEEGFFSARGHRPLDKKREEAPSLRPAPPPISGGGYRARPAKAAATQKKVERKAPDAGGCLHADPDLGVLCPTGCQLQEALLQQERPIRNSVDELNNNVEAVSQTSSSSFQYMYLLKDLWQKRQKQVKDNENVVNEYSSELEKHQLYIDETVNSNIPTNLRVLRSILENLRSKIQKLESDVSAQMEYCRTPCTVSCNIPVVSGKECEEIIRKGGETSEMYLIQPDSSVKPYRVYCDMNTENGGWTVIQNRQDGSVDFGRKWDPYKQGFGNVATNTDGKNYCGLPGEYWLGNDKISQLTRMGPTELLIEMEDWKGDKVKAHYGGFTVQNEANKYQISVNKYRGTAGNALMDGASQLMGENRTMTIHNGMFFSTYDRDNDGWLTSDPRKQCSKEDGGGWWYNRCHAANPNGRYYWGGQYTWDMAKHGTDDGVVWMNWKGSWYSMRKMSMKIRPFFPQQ
T1 sequence (looked up) 3: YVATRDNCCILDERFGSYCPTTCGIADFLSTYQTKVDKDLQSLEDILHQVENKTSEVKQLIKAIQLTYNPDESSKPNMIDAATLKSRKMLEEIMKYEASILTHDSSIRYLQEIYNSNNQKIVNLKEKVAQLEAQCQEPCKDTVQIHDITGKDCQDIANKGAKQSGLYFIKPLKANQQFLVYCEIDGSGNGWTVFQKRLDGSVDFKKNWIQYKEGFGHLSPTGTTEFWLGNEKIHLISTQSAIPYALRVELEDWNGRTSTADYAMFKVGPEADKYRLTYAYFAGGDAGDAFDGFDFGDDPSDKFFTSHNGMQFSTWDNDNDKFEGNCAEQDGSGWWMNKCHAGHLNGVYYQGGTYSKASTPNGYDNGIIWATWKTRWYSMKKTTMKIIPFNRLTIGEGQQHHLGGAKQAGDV
Assay: SPR

B1: recombinant von Willebrand factor (VWF) A2 domain polypeptide, A2_(1481-1668) (domain or fragment)
chain: GLLGVSTLGPKRNSMVLDVAFVLEGSDKIGEADFNRSKEFMEEVIQRMDVGQDSIHVTVLQYSYMVTVEYPFSEAQSKGDILQRVREIRYQGGNRTNTGLALRYLSDHSFLVSQGDREQAPNLVYMVTGNPASDEIKRLPGDIQVVPIGVGPNANVQELERIGWPNAPILIQDFETLPREAPDLVLQR
Kd: 125 ± 30 nM
